The results in this text go back to paper PMC3590988 (The EMBO Journal, 2013).

Assay in all cases: BLI
(BLI is a label-free optical method that tracks binding on a fibre tip over time.)

Assay [1] addresses T1, ScWpl1^259–647 N493A N622A L532E (S. cerevisiae, UniProt Q99359 259-647, N493A | N622A | L532E).
T1 sequence (looked up): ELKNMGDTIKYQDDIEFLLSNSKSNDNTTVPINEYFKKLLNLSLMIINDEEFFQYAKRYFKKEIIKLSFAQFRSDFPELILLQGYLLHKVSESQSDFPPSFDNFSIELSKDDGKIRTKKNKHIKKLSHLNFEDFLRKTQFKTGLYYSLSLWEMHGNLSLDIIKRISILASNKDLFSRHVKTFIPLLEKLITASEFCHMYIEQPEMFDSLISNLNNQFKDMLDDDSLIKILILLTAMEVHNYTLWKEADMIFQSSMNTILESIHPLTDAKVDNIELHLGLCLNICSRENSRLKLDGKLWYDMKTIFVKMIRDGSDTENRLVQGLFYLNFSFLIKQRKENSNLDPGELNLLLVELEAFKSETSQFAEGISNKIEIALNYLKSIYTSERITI

Assay [2] has as its target T2, ScWpl1^259–647 N493E N622E (S. cerevisiae, UniProt Q99359 259-647, N493E | N622E).
T2 sequence (looked up): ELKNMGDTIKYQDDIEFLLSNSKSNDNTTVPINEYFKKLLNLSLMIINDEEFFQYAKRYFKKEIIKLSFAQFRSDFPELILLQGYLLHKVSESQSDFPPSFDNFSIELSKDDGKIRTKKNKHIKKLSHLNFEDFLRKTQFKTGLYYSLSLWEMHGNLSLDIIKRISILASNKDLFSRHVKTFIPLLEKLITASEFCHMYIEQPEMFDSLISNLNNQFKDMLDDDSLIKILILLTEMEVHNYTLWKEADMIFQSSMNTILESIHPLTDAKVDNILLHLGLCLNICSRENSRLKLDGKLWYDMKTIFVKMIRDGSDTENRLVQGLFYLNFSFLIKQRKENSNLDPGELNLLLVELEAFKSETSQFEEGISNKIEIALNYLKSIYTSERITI

Assay [3] has as its target T3, ScWpl1^259–647 (Wapl domain of Saccharomyces cerevisiae Wpl1), wild type (S. cerevisiae, UniProt Q99359 259-647).
T3 sequence (looked up): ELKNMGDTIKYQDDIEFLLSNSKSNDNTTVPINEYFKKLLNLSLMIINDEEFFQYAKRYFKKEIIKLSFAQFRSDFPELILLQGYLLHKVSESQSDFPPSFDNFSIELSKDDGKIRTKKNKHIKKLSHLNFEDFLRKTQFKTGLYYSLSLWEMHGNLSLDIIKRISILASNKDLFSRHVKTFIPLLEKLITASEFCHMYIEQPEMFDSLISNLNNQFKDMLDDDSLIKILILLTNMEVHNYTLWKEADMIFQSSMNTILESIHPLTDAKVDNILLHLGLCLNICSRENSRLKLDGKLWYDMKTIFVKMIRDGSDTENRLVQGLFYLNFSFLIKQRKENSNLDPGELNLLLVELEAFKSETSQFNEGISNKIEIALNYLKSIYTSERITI

The target in assay [4] is T4, ScWpl1^259–647 K376Q K377Q K382Q K383Q (S. cerevisiae, UniProt Q99359 259-647, K376Q | K377Q | K382Q | K383Q).
T4 sequence (looked up): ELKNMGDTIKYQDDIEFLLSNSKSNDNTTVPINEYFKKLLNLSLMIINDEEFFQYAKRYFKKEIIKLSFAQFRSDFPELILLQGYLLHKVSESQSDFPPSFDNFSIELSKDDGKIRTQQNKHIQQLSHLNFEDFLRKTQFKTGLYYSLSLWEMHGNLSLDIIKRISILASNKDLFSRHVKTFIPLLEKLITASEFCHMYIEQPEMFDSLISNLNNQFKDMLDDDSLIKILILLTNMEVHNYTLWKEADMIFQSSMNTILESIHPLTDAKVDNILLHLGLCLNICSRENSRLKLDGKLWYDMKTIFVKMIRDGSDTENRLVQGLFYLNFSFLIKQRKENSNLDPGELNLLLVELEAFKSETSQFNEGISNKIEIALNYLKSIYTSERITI

For assay [5], the target named is T5, ScWpl1^259–647 N493A N622A L577R (S. cerevisiae, UniProt Q99359 259-647, N493A | N622A | L577R).
T5 sequence (looked up): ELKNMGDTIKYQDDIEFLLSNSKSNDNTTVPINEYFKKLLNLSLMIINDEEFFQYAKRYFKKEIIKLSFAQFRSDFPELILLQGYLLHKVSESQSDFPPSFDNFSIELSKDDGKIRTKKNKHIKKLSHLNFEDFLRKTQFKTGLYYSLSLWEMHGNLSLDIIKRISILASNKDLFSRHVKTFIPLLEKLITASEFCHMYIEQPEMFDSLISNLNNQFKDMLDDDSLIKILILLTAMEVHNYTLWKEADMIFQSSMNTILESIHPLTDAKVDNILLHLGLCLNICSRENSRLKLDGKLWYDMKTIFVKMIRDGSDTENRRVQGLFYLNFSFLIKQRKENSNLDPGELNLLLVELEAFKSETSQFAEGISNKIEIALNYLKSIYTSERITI

For assay [6], the target named is T6, ScWpl1^259–647 D271A D272A (S. cerevisiae, UniProt Q99359 259-647, D271A | D272A).
T6 sequence (looked up): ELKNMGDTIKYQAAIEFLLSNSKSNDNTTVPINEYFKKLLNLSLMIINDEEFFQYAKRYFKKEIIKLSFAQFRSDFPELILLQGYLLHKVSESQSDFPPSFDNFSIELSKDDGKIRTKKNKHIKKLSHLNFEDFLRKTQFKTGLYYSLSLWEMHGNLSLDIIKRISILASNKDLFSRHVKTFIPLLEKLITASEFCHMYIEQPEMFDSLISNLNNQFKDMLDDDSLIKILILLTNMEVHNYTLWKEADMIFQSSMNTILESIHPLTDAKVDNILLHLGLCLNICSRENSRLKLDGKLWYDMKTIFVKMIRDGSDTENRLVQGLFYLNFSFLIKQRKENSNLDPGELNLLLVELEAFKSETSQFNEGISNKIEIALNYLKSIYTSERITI

B1: GST-tagged ScSmc3 ATPase head (ScSmc3^AH), wild type (domain or fragment, S. cerevisiae)
chain: MYIKRVIIKGFKTYRNETIIDNFSPHQNVIIGSNGSGKSNFFAAIRFVLSDDYSNLKREERQGLIHQGSGGSVMSASVEIVFHDPDHSMILPSGVLSRGDDEVTIRRTVGLKKDDYQLNDRNVTKGDIVRMLETAGFSMNNPYNIVPQGKIVALTNAKDKERLQLLEDVVGAKSFEVKLKASLKKMEETESGGSGGKVSENFEAVFERLVPRGTAKLIIHRKNDNANDHDESIDVDMDAESNESQNGKDSEIMYTGVSISVSFNSKQNEQLHVEQLSGGQKTVCAIALILAIQMVDPASFYLFDEIDAALDKQYRTAVATLLKELSKNAQFICTTFRTDMLQVADKFFRVKYENKISTVIEVNREEAIGFIRGSNKFAEV
One may read the Kd as the concentration at which binding is half-saturated. Higher therefore signals lower affinity. One may read the koff as the rate constant with which the complex falls apart. The term kon denotes a measure of how fast the partners come together. The low end stands for slower complex formation, the high end for faster complex formation. Regarding B1, the dissociation constant Kd in assay [1] came to 82 nM; in assay [2] it was 126 nM; in assay [3], 47 nM; in assay [4], 200 nM; in assay [5] it was 77 nM; in assay [6] it was 167 nM. The dissociation rate constant (koff) came out at 0.000344 s⁻¹ in assay [1]; 0.000492 s⁻¹ in assay [2]; 0.000248 s⁻¹ in assay [3]; 0.00056 s⁻¹ in assay [4]; 0.000428 s⁻¹ in assay [5]; 0.000395 s⁻¹ in assay [6]. The kon in assay [1] came to 4200 M⁻¹ s⁻¹; in assay [2] it was 3920 M⁻¹ s⁻¹; in assay [3] it was 5220 M⁻¹ s⁻¹; in assay [4], 2800 M⁻¹ s⁻¹; in assay [5] it was 5540 M⁻¹ s⁻¹; in assay [6], 2370 M⁻¹ s⁻¹.

B2: GST-tagged ScSmc3^AH K112N K113N (domain or fragment, S. cerevisiae)
chain: MYIKRVIIKGFKTYRNETIIDNFSPHQNVIIGSNGSGKSNFFAAIRFVLSDDYSNLKREERQGLIHQGSGGSVMSASVEIVFHDPDHSMILPSGVLSRGDDEVTIRRTVGLNNDDYQLNDRNVTKGDIVRMLETAGFSMNNPYNIVPQGKIVALTNAKDKERLQLLEDVVGAKSFEVKLKASLKKMEETESGGSGGKVSENFEAVFERLVPRGTAKLIIHRKNDNANDHDESIDVDMDAESNESQNGKDSEIMYTGVSISVSFNSKQNEQLHVEQLSGGQKTVCAIALILAIQMVDPASFYLFDEIDAALDKQYRTAVATLLKELSKNAQFICTTFRTDMLQVADKFFRVKYENKISTVIEVNREEAIGFIRGSNKFAEV
For the molecule B2, in assay [3], binding was characterised by a dissociation constant (Kd) of 88 nM, the koff is 0.000431 s⁻¹ and the kon stood at 4880 M⁻¹ s⁻¹.

B3: GST-tagged ScSmc3^AH L163D L166D (domain or fragment, S. cerevisiae)
chain: MYIKRVIIKGFKTYRNETIIDNFSPHQNVIIGSNGSGKSNFFAAIRFVLSDDYSNLKREERQGLIHQGSGGSVMSASVEIVFHDPDHSMILPSGVLSRGDDEVTIRRTVGLKKDDYQLNDRNVTKGDIVRMLETAGFSMNNPYNIVPQGKIVALTNAKDKERDQLDEDVVGAKSFEVKLKASLKKMEETESGGSGGKVSENFEAVFERLVPRGTAKLIIHRKNDNANDHDESIDVDMDAESNESQNGKDSEIMYTGVSISVSFNSKQNEQLHVEQLSGGQKTVCAIALILAIQMVDPASFYLFDEIDAALDKQYRTAVATLLKELSKNAQFICTTFRTDMLQVADKFFRVKYENKISTVIEVNREEAIGFIRGSNKFAEV
In assay [3], B3 came in with a Kd of 102 nM, a koff of 0.000597 s⁻¹ and a kon of 5880 M⁻¹ s⁻¹.

B4: GST-tagged ScSmc3^AH L163A L166A D168A (domain or fragment, S. cerevisiae)
chain: MYIKRVIIKGFKTYRNETIIDNFSPHQNVIIGSNGSGKSNFFAAIRFVLSDDYSNLKREERQGLIHQGSGGSVMSASVEIVFHDPDHSMILPSGVLSRGDDEVTIRRTVGLKKDDYQLNDRNVTKGDIVRMLETAGFSMNNPYNIVPQGKIVALTNAKDKERAQLAEAVVGAKSFEVKLKASLKKMEETESGGSGGKVSENFEAVFERLVPRGTAKLIIHRKNDNANDHDESIDVDMDAESNESQNGKDSEIMYTGVSISVSFNSKQNEQLHVEQLSGGQKTVCAIALILAIQMVDPASFYLFDEIDAALDKQYRTAVATLLKELSKNAQFICTTFRTDMLQVADKFFRVKYENKISTVIEVNREEAIGFIRGSNKFAEV
In the case of B4, in assay [3], the Kd is 104 nM, the koff is 0.000497 s⁻¹ and the on-rate constant (kon) turned out to be 4770 M⁻¹ s⁻¹.
